Measured values as given in patent US20240327542A1 (published 2024).

target: RAS-AMG510 (human;); assay: cell binding (Raji), flow cytometry; apparent KD

Kd [nM] | Binder
57 | AMRA3-18 hIgG1 (antibody, V domains shown) VH: EVQLVESGGGLVQPGGSLRLSCAASGFTVSYSSIHWVRQAPGKGLEWVASISSSSGYTSYADSVKGRFTISADTSKNTAYLQMNSLRAEDTAVYYCARYAWWAHGLDYWGQGTLVTVSS VL: DIQMTQSPSSLSASVGDRVTITCRASQSVSSAVAWYQQKPGKAPKLLIYSASSLYSGVPSRFSGSRSGTDFTLTISSLQPEDFATYYCQQGSYTYRLITFGQGTKVEIKR
20 | AMRA3-7 hIgG1 (antibody, V domains shown) VH: EVQLVESGGGLVQPGGSLRLSCAASGFTFSSYSIHWVRQAPGKGLEWVASIYSSYGYTSYADSVKGRFTISADTSKNTAYLQMNSLRAEDTAVYYCARGGWYPAMDYWGQGTLVTVSS VL: DIQMTQSPSSLSASVGDRVTITCRASQSVSSAVAWYQQKPGKAPKLLIYSASSLYSGVPSRFSGSRSGTDFTLTISSLQPEDFATYYCQQISYVYSLITFGQGTKVEIKR
45 | AMRA11-2 hIgG1 (antibody, V domains shown) VH: EVQLVESGGGLVQPGGSLRLSCAASGFTISSSSIHWVRQAPGKGLEWVASISSYSSSTYYADSVKGRFTISADTSKNTAYLQMNSLRAEDTAVYYCARYPYGWGWGGSGLDYWGQGTLVTVSS VL: DIQMTQSPSSLSASVGDRVTITCRASQSVSSAVAWYQQKPGKAPKLLIYSASSLYSGVPSRFSGSRSGTDFTLTISSLQPEDFATYYCQQSSSSLITFGQGTKVEIKR
